From US5830755
Each block holds one substance with its values, some of them ahead of it.

Experiments:
[1] = molecular target: CD3 on murine TIL (murine)
[2] = molecular target: melanoma antigen presented by HLA-A2 on HLA-A2+ melanoma cell lines (peptide not identified in the experiment) (human)
[3] = molecular target: melanoma antigen presented by HLA-A1 on HLA-A1+, HLA-A2- melanoma cell lines (peptide not identified) (human)
[4] = molecular target: gp100 antigen processed in the cell and presented by HLA-A2.1 (human) (UniProt P40967)
[5] = molecular target: MART-1 antigen processed in the cell and presented by HLA-A2.1 (human) (UniProt Q16655)
[6] = molecular target: melanoma antigen presented by HLA-A2 on HLA-A2+ melanoma cell lines (peptide not identified in the experiment) (human); remark: listed apart in the source
[7] = molecular target: MART-1(26-35) peptide … presented by HLA-A2.1 (human)
[8] = molecular target: MART-1(27-35) peptide … presented by HLA-A2.1 (human)
[9] = molecular target: gp100(280-288) peptide … presented by HLA-A2.1 (human)
[10] = molecular target: MART-1(27-36) peptide … presented by HLA-A2.1 (human)
[11] = molecular target: MART-1(22-30) peptide … pulsed on HLA-A2.1 T2 cells (human)
[12] = molecular target: melanoma antigen presented by HLA-A1 on HLA-A1+, HLA-A2- melanoma cell lines (peptide not identified) (human); remark: listed apart in the source
[13] = molecular target: melanoma antigen presented by HLA-A2 on HLA-A2+ melanoma cell lines (peptide not identified in the experiment) (human); remark: listed apart in the source
[14] = molecular target: melanoma antigen presented by HLA-A1 on HLA-A1+, HLA-A2- melanoma cell lines (peptide not identified) (human); remark: listed apart in the source
[15] = molecular target: 38 kD folate binding protein (FBP) (Homo sapiens (Human)) (UniProt P15328)
[16] = molecular target: MART-1(27-35) peptide … presented by HLA-A2.1 (human); remark: listed apart in the source
[17] = molecular target: MART-1(26-35) peptide … presented by HLA-A2.1 (human); remark: listed apart in the source
[18] = molecular target: MART-1(27-35) peptide … presented by HLA-A2.1 (human); remark: listed apart in the source
[19] = molecular target: MART-1(27-36) peptide … presented by HLA-A2.1 (human); remark: listed apart in the source
[20] = molecular target: MART-1(22-30) peptide … pulsed on HLA-A2.1 T2 cells (human); remark: listed apart in the source
[21] = molecular target: MART-1(32-40) peptide … pulsed on HLA-A2.1 T2 cells (human)
[22] = molecular target: gp100(457-465) peptide … presented by HLA-A2.1 (human)
[23] = molecular target: MART-1(27-35) peptide … presented by HLA-A2.1 (human); remark: listed apart in the source
[24] = molecular target: 38 kD folate binding protein (FBP) (Homo sapiens (Human)) (UniProt P15328); remark: listed apart in the source
[25] = molecular target: 38 kD folate binding protein (FBP) (Homo sapiens (Human)) (UniProt P15328); remark: listed apart in the source
[26] = molecular target: MART-1 antigen processed in the cell and presented by HLA-A2.1 (human) (UniProt Q16655); remark: listed apart in the source
[27] = molecular target: melanoma antigen presented by HLA-A1 on HLA-A1+, HLA-A2- melanoma cell lines (peptide not identified) (human); remark: listed apart in the source

pg mIFN-γ/ml/5 × 10^5 cells/16 hours [1]: > 50000 pg/mL
Substance: 2C11 (anti-CD3) antibody

% lysis, 5 hr 51Cr release, E:T 20:1 [2]: 57 % lysis | % lysis, 5 hr 51Cr release, E:T 20:1 [3]: 0 % lysis | IFN-γ Secretion [4]: < 10 pg/mL | IFN-γ Secretion [5]: 730 pg/mL | IFN-γ Secretion [6]: 772 pg/mL | IFN-γ Secretion [7]: 765 pg/mL | IFN-γ Secretion [8]: > 20000 pg/mL | IFN-γ Secretion [9]: 19 pg/mL | IFN-γ Secretion [10]: 22 pg/mL | IFN-γ Secretion [11]: 16 pg/mL | IFN-γ Secretion [12]: 18 pg/mL
Substance: clone A42 TCR (TIL A42 clonotype, Vα21/Jα42/Cα and Vβ7.3/Dβ2.1/Jβ2.7/Cβ2)

% lysis, 4 hour 51Cr release, E:T 40:1 [13]: 46 % lysis | % lysis, 4 hour 51Cr release, E:T 40:1 [14]: 1 % lysis
Substance: TIL F2-2 TCR (TIL F2-2 clonotype, Vα17/Jα42/Cα and Vβ6.5/Dβ1.1/Jβ1.5/Cβ1)

% lysis, 4 hour 51Cr release, E:T 40:1 [13]: 0 % lysis | % lysis, 4 hour 51Cr release, E:T 40:1 [14]: 55 % lysis
Substance: TIL C10-1 TCR (C10-1 T-cell clonotype, Vα8.2/Jα49/Cα and Vβ13.6/Dβ1.1/Jβ1.5/Cβ1)

IFN-γ Secretion [4]: 199 pg/mL | IFN-γ Secretion [5]: 986 pg/mL
Substance: TIL 1143 (uncloned TIL culture) (cells without a defined receptor)

pg mIFN-γ/ml/5 × 10^5 cells/16 hours [15]: 1640 pg/mL
Substance: nontransduced murine MC38 TIL (cells without a defined receptor)

concentration of peptide required to provide 50% of maximal IL-2 stimulation [16]: 50 to 200 nM | IL-2 released [17]: 4060 pg/mL | IL-2 released [18]: 4760 pg/mL | IL-2 released [19]: 469 pg/mL | IL-2 released [20]: < 10 pg/mL | IL-2 released [21]: < 10 pg/mL | IL-2 released [22]: < 10 pg/mL | IL-2 released (pg/ml), HLA-A2+ melanoma cells loaded with peptide [23]: 540 pg/mL | % lysis, 4 hour 51Cr release, E:T 10:1 [13]: 52 % lysis | % lysis, 4 hour 51Cr release, E:T 10:1 [14]: -2 % lysis
Substance: clone 5 TCR (TIL5 clonotype, Vα1/Jα49/Cα and Vβ7.3/Dβ2.1/Jβ2.1/Cβ2)

pg mIFN-γ/ml/5 × 10^5 cells/16 hours [15]: 1010 pg/mL
Substance: Sp-γ chimeric receptor (scFv of anti-2,4,6 TNP MoAb Sp6 joined to the Fc receptor γ chain) (CAR)

mIFN-γ, pg/1.5 × 10^6 splenocytes/ml/18 hrs, activated splenocytes [24]: 2830 pg/mL | pg mIFN-γ/ml/5 × 10^5 cells/16 hours [15]: 16000 pg/mL | mIFN-γ, pg/1.5 × 10^6 splenocytes/ml/48 hrs, fresh splenocytes [25]: 1080 pg/mL
Substance: MOv-γ chimeric receptor (scFv of MoAb MOv18 joined to the Fc receptor γ chain) (CAR)

IFN-γ Secretion [9]: 15 pg/mL | GM-CSF released [17]: 6710 pg/mL | GM-CSF released [18]: 11900 pg/mL | GM-CSF released [19]: 614 pg/mL | GM-CSF released [20]: 21 pg/mL | GM-CSF released [21]: < 10 pg/mL | GM-CSF released [22]: 27 pg/mL | GM-CSF released [26]: 557 pg/mL | GM-CSF released [27]: < 10 pg/mL
Substance: TIL 1235 (uncloned TIL line) (cells without a defined receptor)

mIFN-γ, pg/1.5 × 10^6 splenocytes/ml/48 hrs, fresh splenocytes [25]: 92 pg/mL
Substance: splenocytes of normal mice (cells without a defined receptor)

IFN-γ Secretion [6]: 585 pg/mL | IFN-γ Secretion [7]: 1120 pg/mL | IFN-γ Secretion [8]: 2330 pg/mL | IFN-γ Secretion [9]: 1320 pg/mL | IFN-γ Secretion [10]: 52 pg/mL | IFN-γ Secretion [11]: 21 pg/mL | IFN-γ Secretion [12]: 27 pg/mL
Substance: TIL 660 (uncloned TIL line) (cells without a defined receptor)

IFN-γ Secretion [4]: < 10 pg/mL | IFN-γ Secretion [5]: 121 pg/mL
Substance: TIL 501 (uncloned TIL culture) (cells without a defined receptor)

IFN-γ Secretion [4]: 451 pg/mL | IFN-γ Secretion [5]: < 10 pg/mL | GM-CSF released [17]: 23 pg/mL | GM-CSF released [18]: 19 pg/mL | GM-CSF released [19]: 19 pg/mL | GM-CSF released [20]: < 10 pg/mL | GM-CSF released [21]: < 10 pg/mL | GM-CSF released [22]: 240 pg/mL | % lysis, 4 hour 51Cr release, E:T 40:1 [13]: 68 % lysis | % lysis, 4 hour 51Cr release, E:T 40:1 [14]: 2 % lysis
Substance: TIL 1200 TCR (TIL 1200 clonotype, Vα9/Jα16/Cα and Vβ22.1/Dβ2.1/Jβ2.1/Cβ2)

IL-2 released [18]: < 10 pg/mL | IL-2 released [19]: < 10 pg/mL | IL-2 released [20]: < 10 pg/mL | IL-2 released [21]: < 10 pg/mL | IL-2 released [22]: < 10 pg/mL
Substance: Jurkat neo (non-transfected Jurkat cells with the endogenous Jurkat TCR, Vβ8)

% lysis, 5 hr 51Cr release, E:T 20:1 [2]: 94 % lysis | % lysis, 5 hr 51Cr release, E:T 20:1 [3]: 0 % lysis | IFN-γ Secretion [4]: < 10 pg/mL | IFN-γ Secretion [5]: 1340 pg/mL | IFN-γ Secretion [6]: 2700 pg/mL | IFN-γ Secretion [7]: 5250 pg/mL | IFN-γ Secretion [8]: 16500 pg/mL | IFN-γ Secretion [9]: 21 pg/mL | IFN-γ Secretion [10]: 24 pg/mL | IFN-γ Secretion [11]: 18 pg/mL | IFN-γ Secretion [12]: 29 pg/mL
Substance: clone 1E2 TCR (TIL 1E2 clonotype, Vα25/Jα54/Cα and Vβ3.1/Dβ1.1/Jβ1.1/Cβ1)
